The values below are quoted from earlier work in paper PMC8363833.

Data set [1] has as its target PC1 beta-lactamase (Staphylococcus aureus) (UniProt P00807).
For data set [2], the target named is TEM1 beta-lactamase (Escherichia coli) (UniProt P62593).
Chain of UniProt P62593 (P62593 24-286): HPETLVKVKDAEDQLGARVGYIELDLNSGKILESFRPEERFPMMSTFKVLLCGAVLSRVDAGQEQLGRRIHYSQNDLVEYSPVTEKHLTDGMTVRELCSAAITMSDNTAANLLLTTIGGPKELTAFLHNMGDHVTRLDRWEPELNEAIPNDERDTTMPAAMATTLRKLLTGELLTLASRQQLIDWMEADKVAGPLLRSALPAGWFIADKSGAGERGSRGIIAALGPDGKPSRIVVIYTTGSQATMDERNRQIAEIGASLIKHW

Chain of UniProt P00807 (P00807 25-281): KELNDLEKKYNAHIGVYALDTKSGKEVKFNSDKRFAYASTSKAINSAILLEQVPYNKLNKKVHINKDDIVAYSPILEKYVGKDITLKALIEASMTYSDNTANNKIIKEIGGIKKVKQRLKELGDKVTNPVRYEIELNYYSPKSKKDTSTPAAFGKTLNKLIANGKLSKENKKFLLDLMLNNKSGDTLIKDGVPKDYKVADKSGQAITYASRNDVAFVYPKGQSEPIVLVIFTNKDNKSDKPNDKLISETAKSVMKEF

In the case of BLIP (from UniProt P35804), the Kd (as a rule, the equilibrium constant for the complex coming apart) in data set [1] is 380 nM; in data set [2], 1.3 nM.
